According to ChEMBL document CHEMBL1137897, “Inhibition of lysosomal cysteine proteases by chrysotherapeutic compounds: a possible mechanism for the antiarthritic activity of Au(I)” (Bioorg Med Chem Lett, 2004):

How the values were obtained:
AURANOFIN [1] = settings: Paramecium tetraurelia; 30 uM
Description: Michaelis-Menten constant determined against Paramecium tetraurelia cathepsin L at 30 uM

AURANOFIN [2] = settings: Paramecium tetraurelia; 300 uM
Description: Michaelis-Menten constant determined against Paramecium tetraurelia cathepsin L at 300 uM

AURANOFIN [3] = settings: Paramecium tetraurelia; 3 uM
Description: Michaelis-Menten constant determined against Paramecium tetraurelia cathepsin L at 3 uM

AURANOFIN [4] = settings: Paramecium tetraurelia; 300 nM
Description: Michaelis-Menten constant determined against Paramecium tetraurelia cathepsin L at 300 nM

B1: Putative cathepsin L 3 (Paramecium tetraurelia), Q94715 (protein)
chain: MKQFLTAAIVTLLMTAGYYHLQEDDTNDFERWALKNNKFYTESEKLYRMEIYNSNKRMIEEHNQREDVTYQMGENQFMTLSHEEFVDLYLQKSDSSVNIMGASLPEVQLEGLGAVDWRNYTTVKEQGQCASGWAFSVSNSLEAWYAIRGFQKINASTQQIVDCDYNNTGCSGGYNAYAMEYVLRVGLVSSTNYPYVAKNQTCKQSRNGTYFINGYSFVGGSQSNLQYYLNNYPISVGVEASNWQFYRSGLFSNCSSNGTNHYALAVGFDSANNWIVQNSWGTQWGESGNIRLYPQNTCGILNYPYQVY
Km (AURANOFIN [1]): 47 µM | Km (AURANOFIN [2]): 49 µM | Km (AURANOFIN [3]): 32 µM | Km (AURANOFIN [4]): 27 µM
